What all share (assay): cryo-EM structure; ZorAB complex co-expressed from one operon and co-purified in LMNG; TBS (100 mM Tris, 150 mM NaCl, 1 mM EDTA, pH 8.0) plus 0.02% LMNG; Quantifoil Au grids, Titan Krios G4 at 300 kV
In assay [1] the target is ZorA I from Shewanella sp. ANA-3 (Zorya type I) (Shewanella sp. strain ANA-3).
Assay [2] concerns the target ZorA II from Sulfuricurvum kujiense DSM 16994 (Zorya type II) (Sulfuricurvum kujiense DSM 16994).
Assay [3] addresses ZorB I from Shewanella sp. ANA-3 (Zorya type I) (Shewanella sp. strain ANA-3).
The target in assay [4] is ZorB II from Sulfuricurvum kujiense DSM 16994 (Zorya type II) (Sulfuricurvum kujiense DSM 16994).

The stoichiometry N is a count of units in the complex or per binding partner. As for “ZorA I from Shewanella sp. ANA-3 (Zorya type I) (natural protein)”, the stoichiometry N in assay [1] is 5.
For “ZorA II from Sulfuricurvum kujiense DSM 16994 (Zorya type II) (natural protein)”, the stoichiometry N in assay [2] is 5.
For “ZorB I from Shewanella sp. ANA-3 (Zorya type I) (natural protein)”, the stoichiometry N in assay [3] is 2.
Consider “ZorB II from Sulfuricurvum kujiense DSM 16994 (Zorya type II) (natural protein)”, for which, in assay [4], the stoichiometry N came to 2.

Source of the values: paper PMC11890865.
